# Data published in publication PMC6262856.
# Molecular target: biotin-15d-PGJ2
# Assay: biotin pull-down (avidin) with western-blot quantification (ImageJ)
# Conditions: 293T cells transfected with FLAG-eIF4A1s
row,ratio to parent,Substance
1,0.17,FLAG-eIF4A1 (from UniProt P60842) C264S
2,2.35,FLAG-eIF4A1 (from UniProt P60842) R295A
3,0.03,FLAG-eIF4A1 (from UniProt P60842) C264S; R295A
